{
  "source": "patent US20240425882",
  "target": "T1, microtubule-associated protein EB2 (endogenous, mouse brain), Q8R001",
  "T1 chain": "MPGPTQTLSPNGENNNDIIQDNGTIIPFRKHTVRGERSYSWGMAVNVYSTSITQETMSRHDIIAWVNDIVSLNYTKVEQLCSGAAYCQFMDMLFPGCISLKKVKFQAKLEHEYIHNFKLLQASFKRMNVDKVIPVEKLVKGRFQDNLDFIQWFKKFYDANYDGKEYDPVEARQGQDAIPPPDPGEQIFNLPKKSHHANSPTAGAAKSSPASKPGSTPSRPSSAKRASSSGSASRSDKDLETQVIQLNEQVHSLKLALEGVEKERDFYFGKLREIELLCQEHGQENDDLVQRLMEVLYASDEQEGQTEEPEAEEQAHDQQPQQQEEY",
  "data": [
    {"protein": "human CDKL5, isoform 2 (protein) MKIPNIGNVMNKFEILGVVGEGAYGVVLKCRHKETHEIVAIKKFKDSEENEEVKETTLRELKMLRTLKQENIVELKEAFRRRGKLYLVFEYVEKNMLELLEEMPNGVPPEKVKSYIYQLIKAIHWCHKNDIVHRDIKPENLLISHNDVLKLCDFGFARNLSEGNNANYTEYVATRWYRSPELLLGAPYGKSVDMWSVGCILGELSDGQPLFPGESEIDQLFTIQKVLGPLPSEQMKLFYSNPRFHGLRFPAVNHPQSLERRYLGILNSVLLDLMKNLLKLDPADRYLTEQCLNHPTFQTQRLLDRSPSRSAKRKPYHVESSTLSNRNQAGKSTALQSHHRSNSKDIQNLSVGLPRADEGLPANESFLNGNLAGASLSPLHTKTYQASSQPGSTSKDLTNNNIPHLLSPKEAKSKTEFDFNIDPKPSEGPGTKYLKSNSRSQQNRHSFMESSQSKAGTLQPNEKQSRHSYIDTIPQSSRSPSYRTKAKSHGALSDSKSVSNLSEARAQIAEPSTSRYFPSSCLDLNSPTSPTPTRHSDTRTLLSPSGRNNRNEGTLDSRRTTTRHSKTMEELKLPEHMDSSHSHSLSAPHESFSYGLGYTSPFSSQQRPHRHSMYVTRDKVRAKGLDGSLSIGQGMAARANSLQLLSPQPGEQLPPEMTVARSSVKETSREGTSSFHTRQKSEGGVYHDPHSDDGTAPKENRHLYNDPVPRRVGSFYRVPSPRPDNSFHENNVSTRVSSLPSESSSGTNHSKRQPAFDPWKSPENISHSEQLKEKEKQGFFRSMKKKKKKSQTTDSTNGENPSIKKSLFPLFNSKNHLKHSSSLKKLPVVTPPMVPNSDSPDLLTLQKSIHSASTPSSRPKEWRPEKISDLQTQSQPLKSLRKLLHLSSASNHPASSDPRFQPLTAQQTKNSFSEIRIHPLSQASGGSSNIRQEPAPKGRPALQLPGQMDPGWHVSSVTRSATEGPSYSEQLGAKSGPNGHPYNRTNRSRMPNLNDLKETAL", "values": [
      {"measurement": "EB2 phosphorylation levels (Western blot, Cdkl5-ko mouse brain)", "result": "EB2 phosphorylation levels generated by isoform 2 were slightly higher ... compared to isoform 1"}
    ]},
    {"protein": "human cyclin-dependent kinase-like 5 (CDKL5), isoform 1 (protein) MKIPNIGNVMNKFEILGVVGEGAYGVVLKCRHKETHEIVAIKKFKDSEENEEVKETTLRELKMLRTLKQENIVELKEAFRRRGKLYLVFEYVEKNMLELLEEMPNGVPPEKVKSYIYQLIKAIHWCHKNDIVHRDIKPENLLISHNDVLKLCDFGFARNLSEGNNANYTEYVATRWYRSPELLLGAPYGKSVDMWSVGCILGELSDGQPLFPGESEIDQLFTIQKVLGPLPSEQMKLFYSNPRFHGLRFPAVNHPQSLERRYLGILNSVLLDLMKNLLKLDPADRYLTEQCLNHPTFQTQRLLDRSPSRSAKRKPYHVESSTLSNRNQAGKSTALQSHHRSNSKDIQNLSVGLPRADEGLPANESFLNGNLAGASLSPLHTKTYQASSQPGSTSKDLTNNNIPHLLSPKEAKSKTEFDFNIDPKPSEGPGTKYLKSNSRSQQNRHSFMESSQSKAGTLQPNEKQSRHSYIDTIPQSSRSPSYRTKAKSHGALSDSKSVSNLSEARAQIAEPSTSRYFPSSCLDLNSPTSPTPTRHSDTRTLLSPSGRNNRNEGTLDSRRTTTRHSKTMEELKLPEHMDSSHSHSLSAPHESFSYGLGYTSPFSSQQRPHRHSMYVTRDKVRAKGLDGSLSIGQGMAARANSLQLLSPQPGEQLPPEMTVARSSVKETSREGTSSFHTRQKSEGGVYHDPHSDDGTAPKENRHLYNDPVPRRVGSFYRVPSPRPDNSFHENNVSTRVSSLPSESSSGTNHSKRQPAFDPWKSPENISHSEQLKEKEKQGFFRSMKKKKKKSQTVPNSDSPDLLTLQKSIHSASTPSSRPKEWRPEKISDLQTQSQPLKSLRKLLHLSSASNHPASSDPRFQPLTAQQTKNSFSEIRIHPLSQASGGSSNIRQEPAPKGRPALQLPGQMDPGWHVSSVTRSATEGPSYSEQLGAKSGPNGHPYNRTNRSRMPNLNDLKETAL", "values": [
      {"measurement": "EB2 phosphorylation (Cdkl5(D471fs) mouse brain)", "result": "showed robust hCDKL5 protein expression and EB2 phosphorylation 3 months later"},
      {"measurement": "EB2 phosphorylation (Cdkl5(R59X) mouse brain)", "result": "showed robust hCDKL5 protein expression and EB2 phosphorylation 3 months later"},
      {"measurement": "ability to phosphorylate EB2 (pS222 EB2 Western blot, mouse brain)", "result": "CDKL5 was fully active, as determined by its ability to phosphorylate its endogenous target EB2 protein"},
      {"measurement": "kinase activity, blotting for phosphorylated EB2 (Cdkl5-ko mouse brain, 3 months after AAV)", "result": "human CDKL5 showed robust kinase activity when blotting for phosphorylated EB2 protein"},
      {"measurement": "substrate phosphorylation by CDKL5 (phospho-EB2 levels, pS222/total EB2, Western blot, brain)", "result": "the observed reduction in substrate phosphorylation by CDKL5 (as determined by phospho-EB2 levels) ... was restored to wild type levels"}
    ]},
    {"protein": "human CDKL5, isoform 4 (protein) MKIPNIGNVMNKFEILGVVGEGAYGVVLKCRHKETHEIVAIKKFKDSEENEEVKETTLRELKMLRTLKQENIVELKEAFRRRGKLYLVFEYVEKNMLELLEEMPNGVPPEKVKSYIYQLIKAIHWCHKNDIVHRDIKPENLLISHNDVLKLCDFGFARNLSEGNNANYTEYVATRWYRSPELLLGAPYGKSVDMWSVGCILGELSDGQPLFPGESEIDQLFTIQKVLGPLPSEQMKLFYSNPRFHGLRFPAVNHPQSLERRYLGILNSVLLDLMKNLLKLDPADRYLTEQCLNHPTFQTQRLLDRSPSRNQAGKSTALQSHHRSNSKDIQNLSVGLPRADEGLPANESFLNGNLAGASLSPLHTKTYQASSQPGSTSKDLTNNNIPHLLSPKEAKSKTEFDFNIDPKPSEGPGTKYLKSNSRSQQNRHSFMESSQSKAGTLQPNEKQSRHSYIDTIPQSSRSPSYRTKAKSHGALSDSKSVSNLSEARAQIAEPSTSRYFPSSCLDLNSPTSPTPTRHSDTRTLLSPSGRNNRNEGTLDSRRTTTRHSKTMEELKLPEHMDSSHSHSLSAPHESFSYGLGYTSPFSSQQRPHRHSMYVTRDKVRAKGLDGSLSIGQGMAARANSLQLLSPQPGEQLPPEMTVARSSVKETSREGTSSFHTRQKSEGGVYHDPHSDDGTAPKENRHLYNDPVPRRVGSFYRVPSPRPDNSFHENNVSTRVSSLPSESSSGTNHSKRQPAFDPWKSPENISHSEQLKEKEKQGFFRSMKKKKKKSQTTDSTNGENPSIKKSLFPLFNSKNHLKHSSSLKKLPVVTPPMVPNSDSPDLLTLQKSIHSASTPSSRPKEWRPEKISDLQTQSQPLKSLRKLLHLSSASNHPASSDPRFQPLTAQQTKNSFSEIRIHPLSQASGGSSNIRQEPAPKGRPALQLPGQMDPGWHVSSVTRSATEGPSYSEQLGAKSGPNGHPYNRTNRSRMPNLNDLKETAL", "values": [
      {"measurement": "EB2 phosphorylation levels (Western blot, Cdkl5-ko mouse brain)", "result": "by isoforms three or 4 slightly lower compared to isoform 1"}
    ]},
    {"protein": "human CDKL5, isoform 3 (protein) MKIPNIGNVMNKFEILGVVGEGAYGVVLKCRHKETHEIVAIKKFKDSEENEEVKETTLRELKMLRTLKQENIVELKEAFRRRGKLYLVFEYVEKNMLELLEEMPNGVPPEKVKSYIYQLIKAIHWCHKNDIVHRDIKPENLLISHNDVLKLCDFGFARNLSEGNNANYTEYVATRWYRSPELLLGAPYGKSVDMWSVGCILGELSDGQPLFPGESEIDQLFTIQKVLGPLPSEQMKLFYSNPRFHGLRFPAVNHPQSLERRYLGILNSVLLDLMKNLLKLDPADRYLTEQCLNHPTFQTQRLLDRSPSRNQAGKSTALQSHHRSNSKDIQNLSVGLPRADEGLPANESFLNGNLAGASLSPLHTKTYQASSQPGSTSKDLTNNNIPHLLSPKEAKSKTEFDFNIDPKPSEGPGTKYLKSNSRSQQNRHSFMESSQSKAGTLQPNEKQSRHSYIDTIPQSSRSPSYRTKAKSHGALSDSKSVSNLSEARAQIAEPSTSRYFPSSCLDLNSPTSPTPTRHSDTRTLLSPSGRNNRNEGTLDSRRTTTRHSKTMEELKLPEHMDSSHSHSLSAPHESFSYGLGYTSPFSSQQRPHRHSMYVTRDKVRAKGLDGSLSIGQGMAARANSLQLLSPQPGEQLPPEMTVARSSVKETSREGTSSFHTRQKSEGGVYHDPHSDDGTAPKENRHLYNDPVPRRVGSFYRVPSPRPDNSFHENNVSTRVSSLPSESSSGTNHSKRQPAFDPWKSPENISHSEQLKEKEKQGFFRSMKKKKKKSQTVPNSDSPDLLTLQKSIHSASTPSSRPKEWRPEKISDLQTQSQPLKSLRKLLHLSSASNHPASSDPRFQPLTAQQTKNSFSEIRIHPLSQASGGSSNIRQEPAPKGRPALQLPGQMDPGWHVSSVTRSATEGPSYSEQLGAKSGPNGHPYNRTNRSRMPNLNDLKETAL", "values": [
      {"measurement": "EB2 phosphorylation levels (Western blot, Cdkl5-ko mouse brain)", "result": "by isoforms three or 4 slightly lower compared to isoform 1"}
    ]}
  ]
}
